This note sets out measurements from patent US20070131547A1.

This assay has as its target goxDp-Dzip2 (diaphorase derived from Gluconobacter oxydans, Dzip2 association site fused at the C-terminal side) (Gluconobacter oxydans). The assay can be described thus: cell-based or functional assay.

“His-bmaEDH-Dzip1 (glutamic acid dehydrogenase derived from Burkholderia mallei, His tag, Dzip1 assoc (enzyme)”: the maximum electric power (glutamic acid fuel cell) came to 106 µW/cm^2 and the shortcircuit current density (glutamic acid fuel cell) stood at 1230 µA/cm^2.
